These results are taken from patent US6936431.

The assay concerns the target rat brain farnesyl:protein transferase (rat) (UniProt Q04631). In words: cell-based or functional assay.

On to “CVIM with glutamic acid at the X position (CVIE) (peptide)”, for which the 50% inhibition was more than 40 µM.

On to “CAIL (COOH-terminal tetrapeptide of γ-Subunit of G protein)”, for which the Concentration For 50% Inhibition worked out at 100 µM.

With “CVIM with lysine at the X position (CVIK) (peptide)”, the 50% inhibition was more than 40 µM and the fold decrease in affinity against CVIM, estimated by the concentration required for 50% inhibition was more than 30 fold.

The substance “CVIM with glutamic acid at the A2 position (CVEM) (peptide)” displayed a fold decline in affinity of more than 50 fold.

Consider “CVIM with glycine at the X position (CVIG) (peptide)”, for which the 50% inhibition was more than 40 µM.

For the substance “CVIM with lysine at the A2 position (CVKM) (peptide)”, the fold decline in affinity is more than 50 fold and the fold decrease in affinity against CVIM, estimated by the concentration required for 50% inhibition was more than 30 fold.

“CVIM with glycine at the A2 position (CVGM) (peptide)” showed a 50% inhibition of 8 µM.
